Consider one substance from publication doi:10.1101/2021.06.14.21258871.

This assay has as its target recombinant stabilized complete spike protein (SARS-CoV-2), pre-fusion stabilised (SARS-CoV-2) (UniProt P0DTC2). The experiment in a line: affinity purification with mass spectrometry.

In the case of “human serum albumin (from UniProt P02768 25-609) (natural protein)”, the mean MALDI-ToF peak intensity of eluted HSA is 1920 AU and the percent of samples in which HSA was detected in the eluate came out at 72%.
